Test results published in article PMC6616044, “Identification and characterization of a new sulfoacetaldehyde reductase from the human gut bacterium Bifidobacterium kashiwanohense” (Bioscience Reports, 2019).

Experiments:
[1] = biological target: Bifidobacterium kashiwanohense TauF (sulfoacetaldehyde reductase) (Bifidobacterium kashiwanohense); experiment: SEC; Superdex200 gel filtration, 5 mg/ml BkTauF, 4 ml injected, buffer C (20 mM Tris pH 7.5, 200 mM KCl, 1 mM DTT), 2 ml/min; molecular weight from the elution volume against markers
BkTauF = biological target: T1, BkTauF (Bifidobacterium catenulatum, UniProt A0A0A7I0A5); experiment: X-ray crystal structure, […] Å; type: binding; details: binary complex; nucleotide site in cleft between N- and C-terminal domains
T1 construct: gene AH68_00250; codon-optimized gene; His6-MBP-TEV-GGG fusion in E. coli BL21(DE3), tag cut by TEV protease, GGG linker before N-terminus; 375 residues seen, 41 kDa monomer, dimer; Zn2+ enzyme

[2] = substrate: NC(=O)c1ccc[n+]([C@@H]2O[C@H](COP(=O)(O)OP(=O)(O)OC[C@H]3O[C@@H](n4cnc5c(N)ncnc54)[C@H](OP(=O)(O)O)[C@@H]3O)[C@@H](O)[C@H]2O)c1; experiment: spectrophotometric NADPH formation, A340; type: biochemical, Bifidobacterium catenulatum; details: isethionate oxidation, 100 mM isethionate, 50 mM CAPSO pH 10.0, room temperature
From the text: spectrophotometric NADPH formation, A340 on BkTauF

[3] = substrate: NC(=O)C1=CN([C@@H]2O[C@H](COP(=O)(O)OP(=O)(O)OC[C@H]3O[C@@H](n4cnc5c(N)ncnc54)[C@H](OP(=O)(O)O)[C@@H]3O)[C@@H](O)[C@H]2O)C=CC1; experiment: spectrophotometric NADPH assay, A340; type: biochemical, Bifidobacterium catenulatum; details: sulfoacetaldehyde reduction, 5 mM sulfoacetaldehyde, 50 mM Tris/HCl pH 7.5, room temperature
From the text: spectrophotometric NADPH assay, A340 on BkTauF

[4] = substrate: NC(=O)C1=CN([C@@H]2O[C@H](COP(=O)(O)OP(=O)(O)OC[C@H]3O[C@@H](n4cnc5c(N)ncnc54)[C@H](O)[C@@H]3O)[C@@H](O)[C@H]2O)C=CC1; experiment: spectrophotometric NADH assay, A340; type: biochemical, Bifidobacterium catenulatum; details: sulfoacetaldehyde reduction; 5 mM sulfoacetaldehyde, 50 mM Tris/HCl pH 7.5, room temperature; pH 7.5
From the text: (§1) spectrophotometric NADH assay, A340 on BkTauF

[5] = substrate: O=CCS(=O)(=O)O; experiment: spectrophotometric NADH assay, A340; type: biochemical, Bifidobacterium catenulatum; details: sulfoacetaldehyde introduced as bisulfite adduct; 0.5 mM NADH, 50 mM Tris/HCl pH 7.5, room temperature; pH 7.5
From the text: as §1

[6] = substrate: O=S(=O)(O)CCO; experiment: spectrophotometric NADH assay, A340; type: biochemical, Bifidobacterium catenulatum; details: isethionate oxidation; 1 mM NAD+, 50 mM CAPSO pH 10.0, room temperature; pH 10.0
From the text: as §1

[7] = substrate: NC(=O)c1ccc[n+]([C@@H]2O[C@H](COP(=O)(O)OP(=O)(O)OC[C@H]3O[C@@H](n4cnc5c(N)ncnc54)[C@H](O)[C@@H]3O)[C@@H](O)[C@H]2O)c1; experiment: spectrophotometric NADH formation, A340; type: biochemical, Bifidobacterium catenulatum; details: isethionate oxidation, 100 mM isethionate, 50 mM CAPSO pH 10.0, room temperature
From the text: spectrophotometric NADH formation, A340 on BkTauF

“Bifidobacterium kashiwanohense TauF (sulfoacetaldehyde reductase) (enzyme)” gave a stoichiometry N [1] of 2.

With NC(=O)c1ccc[n+]([C@@H]2O[C@H](COP(=O)(O)OP(=O)(O)OC[C@H]3O[C@@H](n4cnc5c(N)ncnc54)[C@H](O)[C@@H]3O)[C@@H](O)[C@H]2O)c1 [NAD^+] the “X-ray crystal structure, 3.0 Å” value (BkTauF) was “The electron density is well defined for NAD^+”.

B1: BkTauF (Bifidobacterium catenulatum subsp. puerorum PV20-2) (protein)
chain: MLWDYAQPVTIRFGKGRAMEIKDIAEAMGLHDGIMVTPKFFVDSGEAQRLIDASDGAVSTVFTDFSPNPDVTEVDACAEIIRKNHCEFVVAMGGGSAMDVSKAAASICLTDDSIADYHGTGKAMPQKHLPIIALPTTAGTGSEVTCVSVLTNRKLGKKAPIVSDGFFPSVAIVDPELTYSVPPKITASTGMDVLSQAIEGFWSKGHQPICDSCAAHAAKLVFKYLPIAVAEPHNEEAREKMCEASVIAGLAFTLPKTTSSHACSFPLTNIHGIPHGEACGLTLDYFARINKDAQHGRVQEFARGIGFKDVDAMADAIHDLKVRIGMRTGLKDLNLTEEQIADLVRISRHPNLYNNPVEITDDMLDTMYHYLASTD
notes: codon-optimized gene; His6-MBP-TEV-GGG fusion in E. coli BL21(DE3), tag cut by TEV protease, GGG linker before N-terminus; 375 residues seen, 41 kDa monomer, dimer; Zn2+ enzyme
Work on B1 yielded a Km [2] of 0.77 ± 0.08 mM, a kcat [2] of 0.8 ± 0.02 s⁻¹ and a kcat/Km [2] of 1030 M⁻¹ s⁻¹. It also gave a Km [3] of 0.73 ± 0.08 mM, a kcat [3] of 19 ± 1.13 s⁻¹ and a kcat/Km [3] of 26200 M⁻¹ s⁻¹. The Km [4] was 0.06 ± 0.01 mM, the kcat [4] was 18.7 ± 0.52 s⁻¹ and the kcat/Km [4] was 301000 M⁻¹ s⁻¹. It also gave a Km [5] of 0.50 ± 0.04 mM, a kcat [5] of 22.8 ± 0.68 s⁻¹ and a kcat/Km [5] of 46100 M⁻¹ s⁻¹. For the same molecule, the Km [6] was 4.44 ± 0.59 mM, the kcat [6] was 0.97 ± 0.03 s⁻¹ and the kcat/Km [6] was 218 M⁻¹ s⁻¹. It also gave a Km [7] of 0.08 ± 0.00 mM, a kcat [7] of 1.3 ± 0.02 s⁻¹ and a kcat/Km [7] of 15800 M⁻¹ s⁻¹.
